The supplement of paper PMC10724198
± gives the standard deviation of the averaged measurements.

Each sequence was assayed on Saccharomyces cerevisiae (assay: protein stability index of tFT-peptide fusion (C-terminal peptide) (PSI (0-1 scale)); higher = more stable (slower turnover)). Conditions: genetic background: wild type; temperature: 30 C.
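Further: PSI is a weighted mean of sequencing reads over stability bins, variants kept only with over 10 reads, mCherry proximal and sfGFP distal, peptide attached via GGGS linker.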

| Sequence | protein stability index |
| --- | --- |
| PPLLDLATYSSS | 0.697 ± 0.061 |
| SPPPAPSHPPSP | 0.73 ± 0.05 |
| APKPPPPPPPLP | 0.709 ± 0.02 |
| CDVIGLVRVKRG | 0.771 ± 0.047 |
| GGTGGRLGVGHV | 0.704 ± 0.073 |
| RGVRGLWGGKRG | 0.626 ± 0.015 |
| GGYYIFGLCDLL | 0.625 ± 0.075 |
| PPSSDRPSIILP | 0.691 ± 0.081 |
| LFLFAPRPPPPP | 0.717 ± 0.03 |
| GFGKRGKDQDTY | 0.595 ± 0.033 |
| FGVGGRWVVPGA | 0.733 ± 0.016 |
| WNPHFHALSWRL | 0.684 ± 0.019 |
| GDGGGCWSGVGW | 0.643 ± 0.1 |
| LPAPLLSPPRHF | 0.746 ± 0.072 |
| EGACPFLSFRGF | 0.658 ± 0.024 |
| GWEYMDERVNQS | 0.74 ± 0.013 |
| SSPSALSLLLSV | 0.6876 ± 0.0049 |
| IGTGLVLFSPCY | 0.69 ± 0.022 |
| CYVGALQKCGTR | 0.674 ± 0.01 |
| RRIVAPYSGEAA | 0.774 ± 0.013 |
| IPRERPAEHYGG | 0.6473 ± 0.0018 |
| PRSPPPPSPPPY | 0.583 ± 0.02 |
| GVSCIAEGRGGL | 0.668 ± 0.025 |
| LFLSIRRFRCRL | 0.58 ± 0.057 |
| PVFNDDTIIRNP | 0.761 ± 0.032 |
| KKKKNKKKKKPK | 0.615 ± 0.041 |

| Sequence | protein stability index |
| --- | --- |
| GCRGWRSVGRGR | 0.644 ± 0.025 |
| LYLLPLCRPFPY | 0.692 ± 0.013 |
| GRKKTSAGGNQE | 0.702 ± 0.11 |
| SPSPPHPLTTTL | 0.711 ± 0.075 |
| GRGFGVILGGCS | 0.692 ± 0.02 |
| DRRETASGVSVR | 0.682 ± 0.025 |
| PPPPPPAFPPST | 0.716 ± 0.027 |
| FQPPARATFLPV | 0.668 ± 0.031 |
| HVLHKPYRPGRP | 0.601 ± 0.0069 |
| VVREAKGHGGCR | 0.667 ± 0.014 |
| AGGAVGEAGSEG | 0.6939 ± 0.0027 |
| FPASLDAVTRPP | 0.722 ± 0.011 |
| RRGCYLFTPRPG | 0.648 ± 0.015 |
| RPEVRTGPASTH | 0.676 ± 0.032 |
| PPGYPLCLPLGF | 0.7018 ± 0.0035 |
| ARRPHSPLCTTR | 0.7101 ± 0.00075 |
| STPPGTPGISRQ | 0.723 ± 0.079 |
| LPPPPPSSSPSP | 0.7005 ± 0.0067 |
| YSEKFKDRFKED | 0.67 ± 0.015 |
| RTFKYERNLEVY | 0.596 ± 0.046 |
| VVSITYCGQGGG | 0.694 ± 0.045 |
| AGRAVAAAVRED | 0.728 ± 0.076 |
| PPPLPLSTPPPL | 0.671 ± 0.014 |
| GGGARFGLGGRM | 0.675 ± 0.027 |
| GRSGGVGVLWGG | 0.728 ± 0.017 |
| LVQPHGSRFGLA | 0.644 ± 0.012 |

| Sequence | protein stability index |
| --- | --- |
| SRFAAGSRVLFL | 0.758 ± 0.044 |
| AYDIIPGKFKKI | 0.652 ± 0.05 |
| GGVGGGRAGVWG | 0.681 ± 0.021 |
| TIVFLLPSPRSY | 0.657 ± 0.0094 |
| VVLGGFAVGLGF | 0.708 ± 0.021 |
| DMDLAVTRHIRS | 0.718 ± 0.1 |
| PIWWSRSALLAE | 0.671 ± 0.023 |
| VPRPFILTATSE | 0.675 ± 0.084 |
| LRSHKIVDQDPF | 0.7235 ± 0.005 |
| YFSSGGITVSLC | 0.664 ± 0.066 |
| GPGGPGGGWPLQ | 0.687 ± 0.024 |
| PRLPPPPHPSRP | 0.698 ± 0.031 |
| VGSGGGKGLCRQ | 0.674 ± 0.048 |
| QVASVTSLLPYS | 0.75 ± 0.032 |
| ARPVSRWCEASY | 0.645 ± 0.025 |
| RRAGGARGKTSE | 0.645 ± 0.014 |
| PSPPSRFPPCTP | 0.76987 ± 0.00013 |
| KPQAGPSRHPPS | 0.759 ± 0.064 |
| PPHAPLPPPLAL | 0.7219 ± 0.0072 |
| TYIVVAPTLARL | 0.67 ± 0.095 |
| GGLEVDWVGCGV | 0.701 ± 0.012 |
| LFDRFVAGVRYG | 0.656 ± 0.021 |
| TRRAISPEGRWL | 0.645 ± 0.014 |
| PLFLSLPLSFPS | 0.697 ± 0.0058 |
| PATPSPLSSSAP | 0.711 ± 0.039 |
| GPNRCPGRPVTP | 0.703 ± 0.032 |

| Sequence | protein stability index |
| --- | --- |
| SIRTKVVRNVVS | 0.625 ± 0.087 |
| NKKRKYRKNKRG | 0.6096 ± 0.0051 |
| GLYSIAGGSFGE | 0.721 ± 0.026 |
| PPPPPLRVPPPP | 0.6753 ± 0.004 |
| EERGESRGWRVK | 0.604 ± 0.045 |
| GGGRPDRPQRAI | 0.741 ± 0.026 |
| LIGICCDSGSHC | 0.691 ± 0.057 |
| SRSCCPGVRVRF | 0.709 ± 0.03 |
| KKEISSTAGIIV | 0.637 ± 0.073 |
| SWFVGFDGAVGG | 0.774 ± 0.088 |
| LSVFWRGSLWTL | 0.635 ± 0.023 |
| FDNPFQATTATK | 0.823 ± 0.16 |
| KKKGSKITKIKD | 0.699 ± 0.064 |
| PPWPPLVQPVSL | 0.708 ± 0.066 |
| LVHVPVCFLSVL | 0.557 ± 0.0021 |
| PPLPPLPLAPPY | 0.6927 ± 0.005 |
| SDKKGQKLKESQ | 0.693 ± 0.044 |
| SWALELARPGEG | 0.718 ± 0.013 |
| LVFPRCAFGFCF | 0.6791 ± 0.0047 |
| NGKKYWQEYGWG | 0.686 ± 0.025 |
| GGCGGGGGVVVR | 0.7029 ± 0.0021 |
| TNYIPRQSKKGG | 0.71 ± 0.022 |
| CRGRGFVVGGRR | 0.687 ± 0.035 |
